Results taken from patent US20250127857A1, “A COMPOSITION COMPRISING IL-36 AND/OR IL-18 FOR USE IN TREATING OCULAR DISORDERS” (THE PROVOST, FELLOWS, FOUNDATION SCHOLARS, & THE OTHER …, priority 2021, published 2025).

Experiments:
Format in all cases: cell-based, human
[1] = system: HRMEC transwell monolayer; assay: Trans-endothelial electrical resistance (TEER) measurement; details: 100 ng/ml, 6 hr, vs untreated control
[2] = system: ZO-1, tricellulin and occludin; assay: Western blot for tight junction proteins; details: HRMEC, 24 h, indicated concentrations
Method: (§1) FIG. 6 illustrates IL-36 cytokines alter the protein levels of adherens and tight junction components in endothelial cells, wherein (A, B) are Western blot for VE-cadherin protein expression in response to (A) IL-36α, (B) IL-36β treatment for 24 hours at indicated doses in HRMEC, representative N=4 experiments; (C, D) are Western blot for the expression of tight junction proteins ZO-1, tricellulin and occludin in response to (C) IL-36α and (D) IL-36β treatment at indicated concentrations for 24 hours in HRMEC, representative of N=3 experiments; (E) is rate of flux of 70 kDa FITC dextran through HRMEC transwell monolayer with 6 hr pretreatment of 100 ng/ml IL-36α and/or 10 μM cycloheximide (CHX), with treatment applied to apical and basal chambers, representative of N=3 experiments; (F) is permeability apparent for HRMEC treated with IL-36α and/or 10 μM CHX, calculated as stated previously; (G) is rate of flux of 70 kDa FITC dextran through HRMEC transwell monolayer with 6 hr pretreatment of 100 ng/ml IL-36β and/or 10 μM CHX, with treatment applied to apical and basal chambers, representative of N=3 experiments; (H) is permeability apparent for HRMEC treated with IL-36β and/or CHX, calculated as stated previously, wherein T-tests were performed as statistical analysis;
(§2) Protein was extracted from cells using RIPA buffer containing protease inhibitors (Sigma). […]

[3] = system: VE-cadherin; assay: Western blot for VE-cadherin protein expression; details: HRMEC, 24 h
Method: as §1, §2

[4] = system: HRMEC; assay: HRMEC scratch wound healing / migration with IL-36 cytokines; details: treatment applied at time of scratch, 100 ng/ml
Method: FIG. 4 illustrates IL-36 cytokines promote endothelial cell migration, wherein (A, B) are representational images of the HRMEC ‘scratch’ healing with (A) IL-36α (B) IL-36β treatment compared to control at 10× magnification, wherein purple dotted lines equate to the size of the wound as imaged using Image J; (C) is rate of wound healing in HRMEC treated with IL-36α expressed as % wound closure, representational of N=4 experiments, wherein two-way ANOVA was performed as statistical test; (D) is a comparison of the level of wound healing between untreated (unt.) and 100 ng/ml IL-36α at 4 and 24 hr post scratch, consolidated N=4 experiments, wherein two-way ANOVA with multiple comparison was performed as statistical test; (E) is rate of wound healing in HRMEC treated with IL-36β expressed as % wound closure, representational of N=4 experiments, wherein two-way ANOVA with multiple comparison performed as statistical test; (F) is a comparison of the level of wound healing between no treatment and 100 ng/ml IL-36β at 4 and 24 hr post scratch, consolidated N=4 experiments, wherein two-way ANOVA with multiple comparison was performed as statistical test;
Cells were seeded on to a 12-well plate and grown until they reached confluency. […] The area within the scratch was quantified using ImageJ software, and each timepoint was normalised to its baseline and expressed as % closure.

[5] = system: HRMEC; assay: Tube formation assay (Matrigel); details: HRMEC on matrigel, 100 ng/ml, 4 hours, vs unstimulated control
Method: Cells were seeded 2 days prior to the experiment in a T75 in complete growth media and allowed to become ˜80% confluent. They were placed in low serum media overnight prior to use in the experiment. 96 well plates were coated with 60 μl of Matrigel Basement Membrane Matrix (Corning) and placed in a 370C incubator for 30 minutes to set as per manufacturer's instructions. HRMEC were then seeded onto the plates at a density of 8×10^4 cells/ml and treated as indicated with cytokine in triplicate. The plates were placed in an Incucyte and phase contrast images of the wells were taken at 10× for 30 minute intervals. The angiogenesis analyser plug-in for ImageJ was used to analyse the images.

[6] = system: VEGFR2; assay: qPCR of VEGFR2 expression in HRMEC treated with IL-36 cytokines; details: treatment over timepoints
Text: Primers used were sourced from Sigma.

[7] = system: HRMEC transwell monolayer; assay: Permeability assay (4 kDa FITC dextran flux, Papp); details: 100 ng/ml, 6 or 24 hour exposure
Method: HRMEC were grown on transwells (Corning) for 5-7 days to polarize. The cells were placed in low serum media and treated with IL-36 cytokines for 6 or 24 hours, before 4 kDa FITC dextran (Sigma) diluted to 1 mg/ml in low serum media was placed in the apical chamber. Sampling aliquots were periodically removed from the basal chamber and placed in a 96 well plate. The basolateral chamber was then replenished with fresh media. This was repeated at 20-minute intervals for 2 hours. The fluorescence of FITC dextran was measured using a fluorescent plate-reader (BioTek) at an excitation wavelength of 485 nm and an emission wavelength of 520 nm. Relative fluorescence units (RFU) were converted to ng/ml using a FITC dextran standard curve and corrected for background fluorescence and serial dilutions over the course of the experiment. The apparent permeability coefficient (Papp) was calculated as follows: […]
where dQ/dT is the apparent rate of FITC dextran appearance in the basolateral chamber, A (cm^2) is the surface area of the insert, C0 (mg/ml) is the initial FITC-dextran concentration in the apical chamber. dQ/dT is the slope (y=mx+c) calculated by plotting the cumulative amount (Q) against time(s).

[8] = system: HRMEC; assay: Proliferation assays (nuclei cell count, MTS/PMS); details: 24 hours
Method: HRMEC were seeded on coverslips in 6 well plates at a density of 5×10^4 cells/ml and allowed to grow overnight in growth media. They were then washed in PBS and placed in reduced serum media and incubated with treatment for 24 hour. The coverslip was then washed in PBS, fixed in ice cold methanol and stained with Hoechst (1:10000). The coverslips were then affixed to slides and imaged via fluorescence. N=10 images per slip were taken and averaged to give a cell count per coverslip. For the MTS/PMS assay (Promega) cells were seeded at a density of 5×10^4 cells/ml in a 96 well plate. They were allowed to grow overnight in complete growth media before being washed and placed in low-serum media with the treatment indicated for 24 hours before the MTS/PMS assay was carried out as per manufacturer's protocol.

[9] = system: HRMEC transwell monolayer; assay: Inhibition of translation (cycloheximide) with 70 kDa FITC dextran flux; details: 100 ng/ml cytokine plus 10 μM cycloheximide (CHX), 6 hr
Method: HRMEC were grown in transwells as above. Once polarised, HRMEC were treated with 10 μM of the translation inhibitor cycloheximide (Sigma) and/or IL-36 cytokine. 70 kDa FITC dextran (Sigma) diluted to 1 mg/ml in low serum media was placed in apical chamber and performing a FITC flux assay as described above.

B1: IL-36α: recombinant human (rh) IL-36α (Peprotech) (protein, UniProt Q9UHA7 6-158, looked up)
Interleukin-36 alpha: KIDTPQQGSIQDINHRVWVLQDQTLIAVPRKDRMSPVTIALISCRHVETLEKDRGNPIYLGLNGLNLCLMCAKVGDQPTLQLKEKDIMDLYNQPEPVKSFLFYHSQSGRNSTFESVAFPGWFIAVSSEGGCPLILTQELGKANTTDFGLTMLF
- TEER [1]: significantly increased TEER
- expression of ZO-1, tricellulin and occludin protein [2]: dose dependent increase in expression
- VE-cadherin protein expression [3]: Increased expression of VE-cadherin
- rate of wound closure and cell migration [4]: increased the rate of wound closure and cell migration significantly
- length of tubes [5]: potential ability to increase the length of the tubes
- VEGFR2 expression [6]: reduce VEGFR2 expression
- rate of FITC-dextran migrating across the HRMEC monolayer [7]: notably decreased
- number of cells (stained nuclei count) ([8]; 100 ng/ml): increase in the number of cells
- proliferation (MTS/PMS assay) ([8]; 50 or 100 ng/ml): significant increase in proliferation
- proliferation compared with VEGF (MTS/PMS assay) ([8]; VEGF 50 ng/ml positive control): neither cytokine was as effective as VEGF alone
- IL-36-dependent barrier enhancement under inhibition of protein translation [9]: absolute loss
